Results from article PMC7082059 (PLoS Pathogens, 2020).
*: point of attachment. Biotin = O=C1N[C@H]2[C@H](CS[C@H]2CCCCC(=O)*)N1; linker = not defined here

T1: Ac-NPNANPNANPNA-NH2 [(NPNA)3] (Plasmodium falciparum 3D7)
T1 construct: three NPNA repeats of the central NANP repeat region of the Plasmodium falciparum circumsporozoite protein (PfCSP); numbers count on: the peptide (N1-A12); also called (NPNA)3 peptide; source: synthetic peptide, bought: Innopep Inc., 98% purity
T1 chain: Ac-NPNANPNANPNA-NH2

T2: Biotin-linker-NPNANPNANPNANPNA-NH2 (NPNA)4 (Plasmodium falciparum, reading uncertain; also: biotin-linker structure not given here, printed as Biotin-linker-NPNANPNANPNANPNA-NH2 (NPNA)4)
T2 construct: four NPNA repeats of the central NANP repeat region of the Plasmodium falciparum circumsporozoite protein (PfCSP); The linker between biotin and peptide is not described; also called NANP peptide; called (NPNA)3 in the results on BLI; source: synthetic peptide, bought: Innopep Inc
T2 chain: {Biotin-linker}-NPNANPNANPNANPNA-NH2

T3: Biotin-linker-NPNANPNANPNANPNA-NH2 (NPNA)4 (Plasmodium falciparum, reading uncertain; also: biotin-linker structure not given here, printed as Biotin-linker-NPNANPNANPNANPNA-NH2 (NPNA)4)
T3 construct: four NPNA repeats of the central repeat region of Plasmodium falciparum circumsporozoite protein (PfCSP); also called NANP peptide; source: synthetic peptide, ordered from Innopep Inc
T3 chain: {Biotin-linker}-NPNANPNANPNANPNA-NH2

T4: Biotin-linker-KQPADGNPDPNANPNV-NH2 (Junc) (Plasmodium falciparum, reading uncertain; also: biotin-linker structure not given here, printed as Biotin-linker-KQPADGNPDPNANPNV-NH2 (Junc))
T4 construct: junctional region of the Plasmodium falciparum circumsporozoite protein (PfCSP), end of the N-terminal domain and first repeats; numbers count on: the peptide (K1-V16); The linker between biotin and peptide is not described; also called junctional peptide; source: synthetic peptide, bought: Innopep Inc
T4 chain: {Biotin-linker}-KQPADGNPDPNANPNV-NH2

T5: Biotin-linker-KQPADGNPDPNANPNV-NH2 (Junc) (Plasmodium falciparum, reading uncertain; also: biotin-linker structure not given here, printed as Biotin-linker-KQPADGNPDPNANPNV-NH2 (Junc))
T5 construct: junctional region between the N-terminal domain and the central repeats of Plasmodium falciparum circumsporozoite protein (PfCSP); also called junctional peptide; source: synthetic peptide, ordered from Innopep Inc
T5 chain: {Biotin-linker}-KQPADGNPDPNANPNV-NH2

T6: Ac-KQPADGNPDPNANP-NH2 (Junc) (Plasmodium falciparum 3D7)
T6 construct: junctional region of the Plasmodium falciparum circumsporozoite protein (PfCSP); numbers count on: the peptide (K1-P14); also called junctional peptide for crystallography; source: synthetic peptide, bought: Innopep Inc., 98% purity
T6 chain: Ac-KQPADGNPDPNANP-NH2

B1: Fab667 (Fab, V domains shown)
VH: QVQLVQSGAEVKKPGASVKVSCRASGYTFTNYAMHWVRQAPGQRLEWMGWINAGNGYTKYSQKFQDRVTITRDTSATTAYMELSSLRSEDTAMYYCARDSFYDILSGPVYHYYGMDVWGQGTTVTVSS
VL: QSALTQPDSVSGSPGQSITISCTGTSNDVGIYNHVSWYQQHPGKAPKLMIYDVNKRPSGISNRFSGSKSGDTASLTISGLQAEDEADYYCCSYAGSSAWVFGGGTKLTVL
notes: Fab heavy chain; germline VH1-3*01; CDR H3 of 19 residues; lambda light chain; germline Vλ2-23*02; source: purified
B2: Fab667 (Fab, V domains shown)
VH: B1 VH
VL: B1 VL
notes: Germline genes VH1-3*01 and Vlambda2-23*02; CDR H3 of 19 residues; also called mAb667 (as IgG)
B3: Fab317 (Fab, V domains shown)
VH: QMQLVESGGGVVQPGRSLRLSCTASGFTFSTYAMHWVRQSPGQGLQWVAVISYHSTNKYYEDSVRGRFTISRDNSKNTLYLQMNSLRAEDTAVYYCARDGYSSSFFDFWGQGTLVTVSS
VL: DIQMTQSPSTLSASVGDRVAITCRASQSISRWLAWYQQQPGKAPKLLMSGASVLESGVPSRFSGSGSGTEFTLTISSLQPDDFATYYCQHYNSYFVTFGQGTKVEIK
notes: Fab heavy chain; in the cited structure of Fab317, PDB 6AXL; Fab light chain; NANP-only antibody used for comparison; source: purified
B4: Fab317 (Fab, V domains shown)
VH: B3 VH
VL: B3 VL
notes: heavy chain of Fab317 in the cited crystal structure PDB 6AXL; light chain of Fab317 in the cited crystal structure PDB 6AXL; also called mAb317 (as IgG)
B5: Fab668 (Fab, V domains shown)
VH: QVQLVQSGAEVKKPGASVKVSCKASGFTFTDYAMHWVRQAPGQRLEWMGWINAGNGYTKYSQKFQDRLTITRDTFASTVYMELSSLRSEDTTVYYCARDGFCPSNTCSGYYGMDVWGQGTTVTVSS
VL: QSALTQPASVSGSPGQSITISCTGTSSDVGSYNYVSWYQQHPGKAPKLMIYDVNTRPSGVSIRFSASKSGNTASLTVSGLQAEDEAVYYCSSYAGSSTWVFGGGTKLTVL
notes: Fab heavy chain; germline VH1-3*01; CDR H3 of 17 residues with a disulfide between Cys98 and Cys100C; lambda light chain; germline Vλ2-23*02; source: purified
B6: Fab668 (Fab, V domains shown)
VH: B5 VH
VL: B5 VL
notes: Germline genes VH1-3*01 and Vlambda2-23*02; CDR H3 of 17 residues; also called mAb668 (as IgG)

What was measured:
Details in all cases: both partners purified
[1] = molecular target: T1, Ac-NPNANPNANPNA-NH2 [(NPNA)3]; assay: crystal structure; Fab at 11 mg/mL in TBS with a 5:1 molar ratio of peptide to Fab, crystals grown at 293 K
[2] = molecular target: T2, Biotin-linker-NPNANPNANPNANPNA-NH2 …; assay: BLI; biotinylated peptide captured on streptavidin sensors, dipped into serial dilutions of Fab in Kinetics buffer (Dulbecco's PBS, 0.002% Tween20, 0.01% BSA), 25 °C, Octet Red
[3] = molecular target: T3, Biotin-linker-NPNANPNANPNANPNA-NH2 …; assay: BLI; Octet Red; biotinylated peptide (10 ug/mL) captured on streptavidin sensors, dipped into serial dilutions of Fab in Kinetics buffer (Dulbecco's PBS, 0.002% Tween20, 0.01% BSA); 25 C; Fab667-Junc fitted to a biphasic binding model; errors are fitting errors
[4] = molecular target: T4, Biotin-linker-KQPADGNPDPNANPNV-NH2 …; assay: BLI; biotinylated peptide captured on streptavidin sensors, dipped into serial dilutions of Fab in Kinetics buffer (Dulbecco's PBS, 0.002% Tween20, 0.01% BSA), 25 °C, Octet Red
[5] = molecular target: T5, Biotin-linker-KQPADGNPDPNANPNV-NH2 …; assay: BLI; Octet Red; biotinylated peptide (10 ug/mL) captured on streptavidin sensors, dipped into serial dilutions of Fab in Kinetics buffer (Dulbecco's PBS, 0.002% Tween20, 0.01% BSA); 25 C; Fab667-Junc fitted to a biphasic binding model; errors are fitting errors
[6] = molecular target: T6, Ac-KQPADGNPDPNANP-NH2 (Junc); assay: crystal structure; Fab at 11 mg/mL in TBS with a 5:1 molar ratio of peptide to Fab, crystals grown at 293 K

Binder	Kd [2] [nM]	Kd [3] [nM]	koff [3] [s⁻¹]	kon [3] [M⁻¹ s⁻¹]	further results
B1	170				binding result [1]: binds
B2		176	0.00429	24400	
B3	25				binding result [4]: no binding (tested: 8000 nM)
B4			0.00146	58400	binding result [5]: no binding (tested: 8000 nM)
B5	56				binding result [6]: binds; Kd [4]: 206 nM
B6		55.6	0.00179	32200	koff [5]: 0.00424 s⁻¹; kon [5]: 20600 M⁻¹ s⁻¹
